From patent US20100222269A1 (Novo Nordisk, published 2010) come the findings set out here.

Starred links: 1 amine or outer side, 2 acyl side, 3 side chain; linkers in the order of their positions; H or OH if unused. Positions of bridges follow the written chain, without caps; N, C: chain ends. Groups on a side chain read outwards from the residue. No end group written: not given here. *: point of attachment. C20 diacid = O=C(O)CCCCCCCCCCCCCCCCCCC(=O)*; C18 diacid = O=C(O)CCCCCCCCCCCCCCCCC(=O)*; γGlu = O=C(O)[C@H](CCC(=O)[*:2])N[*:1]; AEEA = NCCOCCOCC(=O)O

The labels stand for the following.
B1: N-epsilon25-(2-{2-[2-(2-{2-[2-(19-carboxynonadecanoylamino) ethoxy]ethoxy}acetylamino)ethoxy]ethoxy}acetyl)-[Lys25]-pramlintide (1-37) (peptide)
peptide: KCNTATCATQRLANFLVHSSNNFGK([AEEA-AEEA-C20 diacid])ILPPTNVGSNTY-NH2
modifications: disulfide 2-7 (inferred)
B2: N-epsilon29-(2-{2-[2-(2-{2-[2-(19-carboxynonadecanoylamino) ethoxy]ethoxy}acetylamino)ethoxy]ethoxy}acetyl)-[Lys29]-pramlintide (1-37) (peptide)
peptide: KCNTATCATQRLANFLVHSSNNFGPILPK([AEEA-AEEA-C20 diacid])TNVGSNTY-NH2
modifications: disulfide 2-7 (inferred)
B3: N-epsilon17-(2-{2-[2-(2-{2-[2-(19-carboxynonadecanoylamino)ethoxy]ethoxy}acetylamino)ethoxy]ethoxy}acetyl)-[Lys17]-pramlintide (1-37) (peptide)
peptide: KCNTATCATQRLANFLK([AEEA-AEEA-C20 diacid])HSSNNFGPILPPTNVGSNTY-NH2
modifications: disulfide 2-7 (inferred)
B4: N-alpha-[(S)-4-carboxy-4-(19-carboxynonadecanoylamino)butyryl]-Arg-pramlintide (1-37) (peptide)
peptide: {C20 diacid-γGlu}-RKCNTATCATQRLANFLVHSSNNFGPILPPTNVGSNTY-NH2
modifications: disulfide 3-8 (inferred)
B5: N-alpha-(19-carboxynonadecanoyl)-Glu-Lys-[Arg1]-pramlintide (1-37) (peptide)
peptide: {C20 diacid}-EKRCNTATCATQRLANFLVHSSNNFGPILPPTNVGSNTY-NH2
modifications: disulfide 4-9 (inferred)
B6: N-epsilon2′-(2-{2-[2-(2-{2-[2-(19-carboxynonadecanoylamino) ethoxy]ethoxy}acetylamino)ethoxy]ethoxy}acetyl)-[Lys21]-pramlintide (1-37) (peptide)
peptide: KCNTATCATQRLANFLVHSSK([AEEA-AEEA-C20 diacid])NFGPILPPTNVGSNTY-NH2
modifications: disulfide 2-7 (inferred)
B7: N-alpha-(19-carboxynonadecanoyl)-Glu-Lys-Arg-pramlintide (1-37) (peptide)
peptide: {C20 diacid}-EKRKCNTATCATQRLANFLVHSSNNFGPILPPTNVGSNTY-NH2
modifications: disulfide 5-10 (inferred)
B8: N-epsilon25-(2-{2-[2-(2-{2-[2-(17-carboxyheptadecanoylamino) ethoxy]ethoxy}acetylamino)ethoxy]ethoxy}acetyl)-[Arg18,Lys25]-pramlintide (1-37) (peptide)
peptide: KCNTATCATQRLANFLVRSSNNFGK([AEEA-AEEA-C18 diacid])ILPPTNVGSNTY-NH2
modifications: disulfide 2-7 (inferred)

This assay deals with Amylin 3(a) receptor (human calcitonin receptor (CTa) with RAMP-3) on BHK570 cells (human, UniProt P30988 25-474). In words: cell-based or functional assay.
Chain of Amylin 3(a) receptor (human calcitonin receptor (CTa) with RAMP-3) on BHK570 cells (P30988 25-474): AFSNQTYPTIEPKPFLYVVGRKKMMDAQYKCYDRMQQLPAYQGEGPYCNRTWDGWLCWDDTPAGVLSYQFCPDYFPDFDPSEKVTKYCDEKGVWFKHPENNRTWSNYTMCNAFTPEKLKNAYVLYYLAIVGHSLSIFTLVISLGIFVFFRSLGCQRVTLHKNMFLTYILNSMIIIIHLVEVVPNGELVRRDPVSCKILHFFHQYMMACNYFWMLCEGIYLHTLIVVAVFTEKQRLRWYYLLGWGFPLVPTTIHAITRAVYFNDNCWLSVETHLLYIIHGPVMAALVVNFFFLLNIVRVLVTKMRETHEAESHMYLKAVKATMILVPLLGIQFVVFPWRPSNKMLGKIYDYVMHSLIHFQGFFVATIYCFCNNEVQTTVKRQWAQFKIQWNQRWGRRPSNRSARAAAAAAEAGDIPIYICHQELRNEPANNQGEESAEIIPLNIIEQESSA
As to B1, the Potency luciferase assay worked out at 60 pM. On to B2, for which the Potency luciferase assay turned out to be 200 pM.

Turning to B3, the Potency luciferase assay stood at 100 pM. Next, B4: 200 pM. With B5, the Potency luciferase assay worked out at 70 pM. Then B6, with 100 pM; and B7, with 80 pM.

For the molecule B8, the Potency luciferase assay amounted to 40 pM.
